How the values were obtained:
[1] = biological target: DC-SIGN (DC-specific intercellular adhesion molecule-3 (ICAM-3)-grabbing nonintegrin) on K562/DC-SIGN cells (human) (UniProt Q9NNX6); assay: virus adhesion to cells, captured virus measured by p24 ELISA
[2] = biological target: DC-SIGN (DC-specific intercellular adhesion molecule-3 (ICAM-3)-grabbing nonintegrin) on Raji/DC-SIGN cells (human) (UniProt Q9NNX6); assay: as above

R5-tropic HIV-1ADA envelope glycoprotein on pseudotyped HIV-Luc/ADA particles (natural protein)
fold HIV-1 binding relative to the parental cells [1]: 1.8 fold | fold HIV-1 binding relative to the parental cells [2]: 1.5 fold

Source: PMC446230
